These results are taken from article doi:10.1101/2023.09.21.558797.

In this experiment the target is His-tagged mouse Endophilin A1 SH3 domain (mouse) (UniProt Q62420). In words: ELISA; His-tagged mouse Endophilin A1 SH3 domain coated on a 96-well plate, overlaid with increasing concentrations of GST-tagged Dyn1-PRR peptides; two experiments of four replicates. For orientation: ELISA stands for enzyme-linked immunosorbent assay.
Chain of His-tagged mouse Endophilin A1 SH3 domain (mouse) (Q62420 290-349): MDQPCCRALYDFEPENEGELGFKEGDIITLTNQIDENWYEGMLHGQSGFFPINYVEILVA

“GST-Dyn1xB-PRR (full-length proline-rich region of Dynamin 1 splice variant xB, 746-851) (domain or fragment)”: the fold lower affinity than xA (746–864) is 3 fold.
